These sequences were tested on c-Src (assay: phosphorylation enrichment, bacterial display (enrichment ratio); higher = better substrate or ligand; peptides without Tyr show the background).
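For SH2 binding enrichment of the phosphorylated peptide, bacterial display in this document: peptide library displayed on the E. coli surface as eCPX fusions, selected cells deep-sequenced, score is each peptide's frequency after selection divided by its frequency in the input.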
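For phosphorylation enrichment, bacterial display in this document: 11-residue human phosphosite peptides and single-mutation variants displayed on the E. coli surface, counted by deep sequencing, each peptide's frequency after selection divided by its frequency in the unselected input library; frequency after pTyr selection over input frequency; kinase dosed for 20-30% of maximal phosphorylation in three min.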

Sequence	phosphorylation enrichment
LEVETYRRLLD [KRT12_Y429_I426V]	0.349
KGKLIYLLRDS [NXPE1_Y350_G353R]	0.516
AAVLNYKAGRD [GRIN2A_Y737]	0.432
QVMDGYPIPIG [MMP14_Y353_M355I]	0.3
CSHKFYGKQCC [ADAMTS16_Y1211]	0.268
MHDSNYVSKGS [PDGFRA_Y849]	0.482
KDLPNYNWKSF [KISS1_Y112_N115K]	0.588
RREGVYRNNID [PTEN_Y46_L42R]	0.8
FLNSIYQSRDE [ROS1_Y2227_K2228Q]	4.63
FSAGTYPRMEE [SYCN_Y108_L111M]	0.407
PSSNLYFRWLT [CNGA3_Y168_YF]	1.11
IDAVCYFRMEN [NPHS2_Y194_I192V_YF]	0.873
HNVAIYEGYAL [ACTC1_Y168_P166A]	17.1
DEDFLCREELA [POR_Y575_Y575C_YF]	0.613
YEEDSYSHVMA [FDPS_Y388_I391V]	0.587
ASTHVYQIMNH [ITK_Y588]	2.58
EDGFAYVPLKD [PRIM2_Y208]	0.523

Sequence	phosphorylation enrichment
DDSSAYRSVDE [BCKDHA_Y345]	0.568
ARVDTYCRHNF [HLA-DRB1_Y107_A103R_YF]	0.496
LTFHMYADPNI [SOS1_Y618_F623I_YF]	0.564
FGMQLYQKFMH [GRB14_Y347_N349K_YF]	2.26
ADYYDYGRGLS [KHDRBS3_Y304_H306R]	4.1
EMFNPCYGLFE [NEDD4L_Y679_Y679C]	5.2
QGFDTYFGYLL [ARSB_Y165_R160Q]	6.32
SENYTYIWWLN [PSG4_Y271_K267E]	0.362
NRLNDYIFSFD [RARS1_Y516]	0.555
KPLMPYMRYSR [SMARCE1_Y73]	0.52
RPYRPYIIRGM [LRP5_Y1531]	0.917
SSWPGYVRPLP [HSPB1_Y54]	0.491
FRARAYSFRGP [CHGA_Y381_G382S]	0.507
PQGVGYPPQQQ [EP300_Y2219]	0.579
RGYRQDAYDGK [HLA-A_Y140]	0.526
SVTYTYSPALN [TP53_Y126_C124Y]	0.998

These sequences were tested against Grb2 SH2 (UniProt P62993) (assay: SH2 binding enrichment of the phosphorylated peptide, bacterial display (enrichment ratio); higher = better substrate or ligand; peptides without Tyr show the background).
Grb2 SH2, sequence (P62993 whole entry, looked up): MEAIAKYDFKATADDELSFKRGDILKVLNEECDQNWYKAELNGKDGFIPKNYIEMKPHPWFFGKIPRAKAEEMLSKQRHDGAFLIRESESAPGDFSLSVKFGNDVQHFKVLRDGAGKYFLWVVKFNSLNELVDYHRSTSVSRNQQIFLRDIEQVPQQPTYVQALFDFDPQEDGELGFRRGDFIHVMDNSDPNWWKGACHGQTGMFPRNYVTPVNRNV

Sequence	SH2 binding enrichment
LEVETYRRLLD [KRT12_Y429_I426V]	0.843
KGKLIYLLRDS [NXPE1_Y350_G353R]	2.45
AAVLNYKAGRD [GRIN2A_Y737]	0.835
QVMDGYPIPIG [MMP14_Y353_M355I]	0.826
CSHKFYGKQCC [ADAMTS16_Y1211]	1.04
MHDSNYVSKGS [PDGFRA_Y849]	0.739
KDLPNYNWKSF [KISS1_Y112_N115K]	0.664
RREGVYRNNID [PTEN_Y46_L42R]	0.621
FLNSIYQSRDE [ROS1_Y2227_K2228Q]	0.789
FSAGTYPRMEE [SYCN_Y108_L111M]	0.869
PSSNLYFRWLT [CNGA3_Y168_YF]	1.41
IDAVCYFRMEN [NPHS2_Y194_I192V_YF]	0.764
HNVAIYEGYAL [ACTC1_Y168_P166A]	0.716
DEDFLCREELA [POR_Y575_Y575C_YF]	0.8
YEEDSYSHVMA [FDPS_Y388_I391V]	0.772
ASTHVYQIMNH [ITK_Y588]	0.73
EDGFAYVPLKD [PRIM2_Y208]	0.992

Sequence	SH2 binding enrichment
DDSSAYRSVDE [BCKDHA_Y345]	0.794
ARVDTYCRHNF [HLA-DRB1_Y107_A103R_YF]	1.01
LTFHMYADPNI [SOS1_Y618_F623I_YF]	0.811
FGMQLYQKFMH [GRB14_Y347_N349K_YF]	1.23
ADYYDYGRGLS [KHDRBS3_Y304_H306R]	0.698
EMFNPCYGLFE [NEDD4L_Y679_Y679C]	0.918
QGFDTYFGYLL [ARSB_Y165_R160Q]	0.596
SENYTYIWWLN [PSG4_Y271_K267E]	0.694
NRLNDYIFSFD [RARS1_Y516]	1.15
KPLMPYMRYSR [SMARCE1_Y73]	0.78
RPYRPYIIRGM [LRP5_Y1531]	0.759
SSWPGYVRPLP [HSPB1_Y54]	0.97
FRARAYSFRGP [CHGA_Y381_G382S]	0.597
PQGVGYPPQQQ [EP300_Y2219]	0.92
RGYRQDAYDGK [HLA-A_Y140]	1.3
SVTYTYSPALN [TP53_Y126_C124Y]	0.76

These sequences were tested against SHP2-C SH2 in the same assay as above.

Sequence	SH2 binding enrichment
LEVETYRRLLD [KRT12_Y429_I426V]	0.64
KGKLIYLLRDS [NXPE1_Y350_G353R]	3.18
AAVLNYKAGRD [GRIN2A_Y737]	0.44
QVMDGYPIPIG [MMP14_Y353_M355I]	0.587
CSHKFYGKQCC [ADAMTS16_Y1211]	1.01
MHDSNYVSKGS [PDGFRA_Y849]	0.546
KDLPNYNWKSF [KISS1_Y112_N115K]	0.475
RREGVYRNNID [PTEN_Y46_L42R]	0.451
FLNSIYQSRDE [ROS1_Y2227_K2228Q]	0.74
FSAGTYPRMEE [SYCN_Y108_L111M]	0.691
PSSNLYFRWLT [CNGA3_Y168_YF]	1.15
IDAVCYFRMEN [NPHS2_Y194_I192V_YF]	0.607
HNVAIYEGYAL [ACTC1_Y168_P166A]	0.838
DEDFLCREELA [POR_Y575_Y575C_YF]	0.734
YEEDSYSHVMA [FDPS_Y388_I391V]	0.69
ASTHVYQIMNH [ITK_Y588]	0.833
EDGFAYVPLKD [PRIM2_Y208]	0.563

Sequence	SH2 binding enrichment
DDSSAYRSVDE [BCKDHA_Y345]	0.765
ARVDTYCRHNF [HLA-DRB1_Y107_A103R_YF]	0.743
LTFHMYADPNI [SOS1_Y618_F623I_YF]	0.959
FGMQLYQKFMH [GRB14_Y347_N349K_YF]	1.02
ADYYDYGRGLS [KHDRBS3_Y304_H306R]	6.25
EMFNPCYGLFE [NEDD4L_Y679_Y679C]	0.803
QGFDTYFGYLL [ARSB_Y165_R160Q]	0.561
SENYTYIWWLN [PSG4_Y271_K267E]	0.636
NRLNDYIFSFD [RARS1_Y516]	0.778
KPLMPYMRYSR [SMARCE1_Y73]	0.609
RPYRPYIIRGM [LRP5_Y1531]	0.557
SSWPGYVRPLP [HSPB1_Y54]	0.654
FRARAYSFRGP [CHGA_Y381_G382S]	0.363
PQGVGYPPQQQ [EP300_Y2219]	0.685
RGYRQDAYDGK [HLA-A_Y140]	0.458
SVTYTYSPALN [TP53_Y126_C124Y]	0.717

What follows are sequences tested against c-Src SH2 in the same assay as above.

Sequence	SH2 binding enrichment
LEVETYRRLLD [KRT12_Y429_I426V]	0.467
KGKLIYLLRDS [NXPE1_Y350_G353R]	1.75
AAVLNYKAGRD [GRIN2A_Y737]	0.447
QVMDGYPIPIG [MMP14_Y353_M355I]	0.5
CSHKFYGKQCC [ADAMTS16_Y1211]	0.765
MHDSNYVSKGS [PDGFRA_Y849]	0.404
KDLPNYNWKSF [KISS1_Y112_N115K]	0.38
RREGVYRNNID [PTEN_Y46_L42R]	0.436
FLNSIYQSRDE [ROS1_Y2227_K2228Q]	0.361
FSAGTYPRMEE [SYCN_Y108_L111M]	1.08
PSSNLYFRWLT [CNGA3_Y168_YF]	0.876
IDAVCYFRMEN [NPHS2_Y194_I192V_YF]	0.545
HNVAIYEGYAL [ACTC1_Y168_P166A]	2.31
DEDFLCREELA [POR_Y575_Y575C_YF]	0.543
YEEDSYSHVMA [FDPS_Y388_I391V]	2.64
ASTHVYQIMNH [ITK_Y588]	14.3
EDGFAYVPLKD [PRIM2_Y208]	0.55

Sequence	SH2 binding enrichment
DDSSAYRSVDE [BCKDHA_Y345]	0.886
ARVDTYCRHNF [HLA-DRB1_Y107_A103R_YF]	0.757
LTFHMYADPNI [SOS1_Y618_F623I_YF]	5.33
FGMQLYQKFMH [GRB14_Y347_N349K_YF]	1.08
ADYYDYGRGLS [KHDRBS3_Y304_H306R]	0.564
EMFNPCYGLFE [NEDD4L_Y679_Y679C]	0.643
QGFDTYFGYLL [ARSB_Y165_R160Q]	0.327
SENYTYIWWLN [PSG4_Y271_K267E]	0.399
NRLNDYIFSFD [RARS1_Y516]	0.506
KPLMPYMRYSR [SMARCE1_Y73]	0.402
RPYRPYIIRGM [LRP5_Y1531]	0.574
SSWPGYVRPLP [HSPB1_Y54]	0.741
FRARAYSFRGP [CHGA_Y381_G382S]	0.573
PQGVGYPPQQQ [EP300_Y2219]	0.428
RGYRQDAYDGK [HLA-A_Y140]	0.517
SVTYTYSPALN [TP53_Y126_C124Y]	0.453

Source: the supplement of paper PMC10065799, “High-throughput profiling of sequence recognition by tyrosine kinases and SH2 domains using bacterial peptide display” (eLife, 2023)
